Measurements: the Human Domainome abundance scans (Beltran et al. 2025)
± gives the uncertainty stated by the source.

B1: Zinc finger homeobox protein 3, residues 2147 to 2202; numbered along this chain, Q15911 (parent)
chain: RPRTRITDDQLRVLRQYFDINNSPSEEQIKEMADKSGLPQKVIKHWFRNTLFKERQ

Variants of: B1
Test: abundance fitness (aPCA) (normalised: wild type 0, dead -1); higher = more abundant; growth selection in yeast, the domain comes from the species named
Details: Homo sapiens

Compared with F18G, T7I is lower in abundance fitness: -0.263 ± 0.062 for the first, -0.596 ± 0.13 for the second.

Compared with D34A, N21F is lower in abundance fitness: 0.071 ± 0.084 for the first, -0.421 ± 0.11 for the second.

First: F18C
Second: F18D
The abundance fitness of the first is higher: -0.161 ± 0.093 for the first, -0.419 ± 0.11 for the second.

First: L14P
Second: Q40F
The abundance fitness of the first is lower: -1.05 ± 0.16 for the first, -0.172 ± 0.23 for the second.

Compared with R5Q, L38Q is lower in abundance fitness: -0.027 ± 0.1 for the first, -0.649 ± 0.13 for the second.

L14A and I43Y are within error of each other in abundance fitness: -0.951 ± 0.094 for the first, -1.08 ± 0.34 for the second.

First: P24W
Second: G37C
The abundance fitness of the first is lower: -0.485 ± 0.088 for the first, -0.037 ± 0.13 for the second.

Going from R1A to F52G, the abundance fitness rises from -0.652 ± 0.41 to 0.09 ± 0.068.

E31S and R48I are within error of each other in abundance fitness: -0.196 ± 0.091 for the first, -0.009 ± 0.14 for the second.

R3C and Q10T are within error of each other in abundance fitness: -0.426 ± 0.13 for the first, -0.357 ± 0.1 for the second.

H45S and R12C are within error of each other in abundance fitness: 0.028 ± 0.086 for the first, -0.067 ± 0.084 for the second.

V42R and R48N are within error of each other in abundance fitness: -0.028 ± 0.09 for the first, 0.102 ± 0.21 for the second.

L11Q and N22Q are within error of each other in abundance fitness: -0.01 ± 0.09 for the first, 0.038 ± 0.091 for the second.

D19T and H45G are within error of each other in abundance fitness: -0.02 ± 0.089 for the first, 0.007 ± 0.085 for the second.

First: E31C
Second: I6T
The abundance fitness of the first is higher: -0.213 ± 0.11 for the first, -0.448 ± 0.11 for the second.

D8N and E27P are within error of each other in abundance fitness: -0.211 ± 0.11 for the first, -0.078 ± 0.09 for the second.

K44L and S23C are within error of each other in abundance fitness: -0.03 ± 0.088 for the first, 0.081 ± 0.16 for the second.

R5N and R3E are within error of each other in abundance fitness: 0.201 ± 0.084 for the first, 0.184 ± 0.089 for the second.

H45V and G37N are within error of each other in abundance fitness: 0.015 ± 0.078 for the first, -0.124 ± 0.16 for the second.

First: S36Y
Second: T4N
The abundance fitness of the first is lower: -0.178 ± 0.12 for the first, 0.134 ± 0.19 for the second.

First: E31L
Second: I29A
The abundance fitness of the first is higher: -0.259 ± 0.09 for the first, -0.476 ± 0.078 for the second.

First: V13N
Second: L51Q
The abundance fitness of the first is lower: -0.227 ± 0.073 for the first, 0.044 ± 0.11 for the second.

F52E and K53D are within error of each other in abundance fitness: -0.015 ± 0.11 for the first, -0.18 ± 0.17 for the second.

First: Q40T
Second: F47Y
The abundance fitness of the first is higher: 0.054 ± 0.099 for the first, -0.273 ± 0.19 for the second.

P2R and Q40H are within error of each other in abundance fitness: 0.127 ± 0.091 for the first, 0.025 ± 0.18 for the second.

Compared with Q28C, R55A is higher in abundance fitness: -0.423 ± 0.089 for the first, -0.139 ± 0.097 for the second.

Compared with K41Q, Q28R is lower in abundance fitness: 0.095 ± 0.15 for the first, -0.221 ± 0.065 for the second.

Compared with R48C, T4M is higher in abundance fitness: -0.446 ± 0.14 for the first, 0.13 ± 0.12 for the second.

Compared with R12S, I43F is lower in abundance fitness: 0.018 ± 0.071 for the first, -0.864 ± 0.39 for the second.

K30F and L51V are within error of each other in abundance fitness: -0.264 ± 0.16 for the first, -0.119 ± 0.077 for the second.

Compared with V13K, D34E is higher in abundance fitness: -0.054 ± 0.083 for the first, 0.207 ± 0.1 for the second.

Going from Q16I to N22E, the abundance fitness rises from -0.469 ± 0.18 to -0.057 ± 0.094.

First: R12H
Second: I6G
The abundance fitness of the first is higher: -0.128 ± 0.12 for the first, -0.48 ± 0.08 for the second.

Compared with A33D, E54G is higher in abundance fitness: -0.879 ± 0.33 for the first, -0.291 ± 0.078 for the second.

First: N22L
Second: F47Q
The abundance fitness of the first is higher: -0.092 ± 0.074 for the first, -0.801 ± 0.18 for the second.

D19H and Q28V are within error of each other in abundance fitness: -0.034 ± 0.097 for the first, -0.064 ± 0.076 for the second.

First: A33P
Second: G37H
The abundance fitness of the first is lower: -0.908 ± 0.24 for the first, -0.361 ± 0.16 for the second.

R1F and E26R are within error of each other in abundance fitness: -0.385 ± 0.39 for the first, -0.093 ± 0.064 for the second.

S36C and E31N are within error of each other in abundance fitness: -0.156 ± 0.1 for the first, -0.399 ± 0.17 for the second.

Going from S25V to P2W, the abundance fitness falls from -0.356 ± 0.078 to -0.679 ± 0.11.

K53F and L51S are within error of each other in abundance fitness: -0.195 ± 0.13 for the first, 0.015 ± 0.083 for the second.

Compared with Q40K, Q16F is lower in abundance fitness: 0.193 ± 0.12 for the first, -0.196 ± 0.18 for the second.

First: P39A
Second: L38N
The abundance fitness of the first is higher: -0.068 ± 0.078 for the first, -1.15 ± 0.28 for the second.

Going from S25T to I6S, the abundance fitness falls from 0.012 ± 0.097 to -0.46 ± 0.098.

First: K30R
Second: I29L
The abundance fitness of the first is lower: -0.193 ± 0.072 for the first, 0.09 ± 0.079 for the second.

G37A and Y17V are within error of each other in abundance fitness: -0.176 ± 0.11 for the first, -0.153 ± 0.067 for the second.

Going from R48Y to Y17P, the abundance fitness falls from -0.413 ± 0.21 to -0.838 ± 0.1.

V42F and L11F are within error of each other in abundance fitness: -0.293 ± 0.18 for the first, -0.216 ± 0.1 for the second.

Going from D8S to M32S, the abundance fitness falls from 0.02 ± 0.075 to -0.882 ± 0.12.

T50H and K53I are within error of each other in abundance fitness: -0.048 ± 0.2 for the first, -0.124 ± 0.17 for the second.

First: L38M
Second: Q16E
The abundance fitness of the first is lower: -0.302 ± 0.11 for the first, -0.045 ± 0.091 for the second.

First: Q56D
Second: R15T
The abundance fitness of the first is lower: -0.844 ± 0.38 for the first, -0.023 ± 0.084 for the second.

First: I43Q
Second: R15Q
The abundance fitness of the first is lower: -1 ± 0.17 for the first, -0.045 ± 0.08 for the second.

Going from N21K to I29S, the abundance fitness falls from -0.018 ± 0.1 to -0.491 ± 0.093.

K30T and L51I are within error of each other in abundance fitness: -0.061 ± 0.1 for the first, -0.232 ± 0.14 for the second.

K30N and P24Y are within error of each other in abundance fitness: -0.637 ± 0.2 for the first, -0.519 ± 0.13 for the second.

I29K and W46C are within error of each other in abundance fitness: -0.634 ± 0.13 for the first, -0.524 ± 0.14 for the second.

Compared with I20W, E31Y is lower in abundance fitness: -0.184 ± 0.077 for the first, -0.448 ± 0.15 for the second.

K35W and H45P are within error of each other in abundance fitness: -0.346 ± 0.092 for the first, -0.377 ± 0.11 for the second.

Going from W46K to N21C, the abundance fitness rises from -0.738 ± 0.14 to -0.14 ± 0.11.

E26Y and V42K are within error of each other in abundance fitness: 0.004 ± 0.13 for the first, -0.051 ± 0.15 for the second.

Going from K53M to R15W, the abundance fitness falls from 0.09 ± 0.11 to -0.125 ± 0.073.

First: H45L
Second: L38H
The abundance fitness of the first is higher: -0.032 ± 0.079 for the first, -1.1 ± 0.38 for the second.

First: M32C
Second: T50L
The abundance fitness of the first is lower: -0.407 ± 0.12 for the first, -0.17 ± 0.11 for the second.

N22Y and G37Q are within error of each other in abundance fitness: -0.076 ± 0.14 for the first, -0.245 ± 0.1 for the second.

F52K and D9S are within error of each other in abundance fitness: 0.185 ± 0.13 for the first, 0.098 ± 0.07 for the second.

Compared with K44Y, Q28A is higher in abundance fitness: -0.354 ± 0.18 for the first, -0.042 ± 0.081 for the second.

Compared with K35M, I43K is lower in abundance fitness: -0.216 ± 0.11 for the first, -0.945 ± 0.21 for the second.

V13T and K44I are within error of each other in abundance fitness: -0.044 ± 0.065 for the first, -0.102 ± 0.15 for the second.

First: D8L
Second: K35S
The abundance fitness of the first is higher: -0.028 ± 0.067 for the first, -0.222 ± 0.08 for the second.

Going from P24S to K44A, the abundance fitness rises from -1 ± 0.095 to -0.096 ± 0.097.

Going from L38P to E26Q, the abundance fitness rises from -0.858 ± 0.13 to 0.171 ± 0.098.

V42N and K44F are within error of each other in abundance fitness: -0.15 ± 0.17 for the first, -0.175 ± 0.16 for the second.

Compared with D9V, I29N is lower in abundance fitness: -0.172 ± 0.073 for the first, -0.44 ± 0.13 for the second.

Going from R3Q to G37Y, the abundance fitness falls from -0.062 ± 0.14 to -0.424 ± 0.15.

Going from L11C to Q40Y, the abundance fitness rises from -1.12 ± 0.11 to 0.088 ± 0.32.

First: E54Q
Second: I29E
The abundance fitness of the first is higher: 0.04 ± 0.16 for the first, -0.334 ± 0.095 for the second.

M32I and R12F are within error of each other in abundance fitness: -0.191 ± 0.21 for the first, -0.193 ± 0.12 for the second.

K41G and H45K are within error of each other in abundance fitness: 0.108 ± 0.079 for the first, 0.141 ± 0.11 for the second.

E54M and L11N are within error of each other in abundance fitness: -0.107 ± 0.17 for the first, -0.019 ± 0.15 for the second.

First: D19E
Second: P2T
The abundance fitness of the first is lower: 0.022 ± 0.085 for the first, 0.279 ± 0.11 for the second.

Compared with L14H, R55M is higher in abundance fitness: -0.666 ± 0.14 for the first, -0.101 ± 0.12 for the second.

D34S and I20V are within error of each other in abundance fitness: -0.002 ± 0.078 for the first, -0.074 ± 0.069 for the second.

Variant S36P has an abundance fitness of -0.853 ± 0.1.
